Molecular target: T1, Stabilin CTD (C-terminal domain of stabilin-2, truncated intracellular region) (human, UniProt Q8WWQ8 2501-2551)
T1 sequence: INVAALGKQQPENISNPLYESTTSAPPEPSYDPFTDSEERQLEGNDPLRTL
Experiment: ITC

dH: -1.75 kcal/mol
Binder: MSDKPDMAEIEKFDKSKLKKTETQEKNPLPSKETIEQEKQAGES (natural protein, not fully specified) [Thymosin β4]

Reference: article PMC5424802 (Intrinsically Disordered Proteins, 2013)
